From US20020115167 come the findings set out here.

For the series, the target named is T1, Dishevelled (Dsh) protein, Drosophila, P51140.
T1 chain: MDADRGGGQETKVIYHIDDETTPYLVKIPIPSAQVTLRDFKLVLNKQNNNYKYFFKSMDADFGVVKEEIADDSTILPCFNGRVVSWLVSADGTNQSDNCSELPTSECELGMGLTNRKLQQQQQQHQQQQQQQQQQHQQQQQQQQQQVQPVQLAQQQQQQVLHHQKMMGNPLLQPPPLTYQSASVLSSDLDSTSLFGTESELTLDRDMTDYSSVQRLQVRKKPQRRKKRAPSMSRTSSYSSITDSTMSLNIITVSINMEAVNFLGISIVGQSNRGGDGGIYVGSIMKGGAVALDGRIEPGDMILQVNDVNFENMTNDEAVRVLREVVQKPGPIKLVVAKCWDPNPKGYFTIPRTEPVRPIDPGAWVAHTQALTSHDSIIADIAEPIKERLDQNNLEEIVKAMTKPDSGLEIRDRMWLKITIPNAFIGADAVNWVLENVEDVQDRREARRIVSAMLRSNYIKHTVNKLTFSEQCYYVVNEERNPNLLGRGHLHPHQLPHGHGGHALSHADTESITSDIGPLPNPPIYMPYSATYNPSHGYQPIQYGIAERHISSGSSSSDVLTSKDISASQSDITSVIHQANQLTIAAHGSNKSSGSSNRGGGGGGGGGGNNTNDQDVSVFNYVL

B1: Drosophila PAR-1 (dPAR-1), the Dishevelled-associated kinase (protein)
chain: MSTAMRTTLQSVPEALPADSVSNGTASNVAAPAAPVSSATNAVPPLAAVSSTTATYATNSISTSSHSVKDQQQQQQQQQHDSANANIVSLPPTTTPVANTNTMMPIVTSSNSATSNSTAATPTPASGAAATGGVGSVSQGPATVSASAANTNHSHQHSHQHHHHVANNMTTDGARLSSNNSAVVASSAINHHHHHTPGSGVAPTVNKNVLSTHSAHPSAIKQRTSSAKGSPNMQMRSSAPMRWRATEEHIGKYKLIKTIGKGNFAKVKLAKHLPTGKEVAIKIIDKTQLNPGSLQKLFREVRIMKMLDHPNIVKLFQVIETEKTLYLIMEYASGGEVFDYLVLHGRMKEKEARVKFRQIVSAVQYCHQKRIIHRDLKAENLLLDSELNIKIADFGFSNEFTPGSKLDTFCGSPPYAAPELFQGKKYDGPEVDVWSLGVILYTLVSGSLPFDGSTLRELRERVLRGKYRIPFYMSTDCENLLRKFLVLNPAKRASLETIMGDKWMNMGFEEDELKPYIEPKADLADPKRIEALVAMGYNRSEIEASLSQVRYDDVFATYLLLGRKSTDPESDGSRSGSSLSLRNISGNDAGANAGSASVQSPTHRGVHRSISASSTKPSRRASSGAETLRVGPTNAAATVAAATGAVGAVNPSNNYNAAGSAADRASVGSNFKRQNTIDSATIKENTARLAAQNQRPASATQKMLTTADTTLNSPAKPRTATKYDPTNGNRTVSGTSGIIPRRSTTLYEKTSSTEKTNVIPAETKMASAVKSSRHFPRNVPSRSTFHSGQTRARNNTALEYSGTSGASGDSSHPGRMSFFSKLSSRFSKRPNQ
As to B1, the “in-gel in vitro kinase assay” value is “these bands phosphorylated the Dsh substrate impregnated in the gel”.
